Laboratory results taken from the DeepSol protein solubility set.

Experiment: soluble on expression in E. coli; label from the status in PepcDB or PDB records

Row | Sequence | soluble on expression in E. coli
1 | AHHHHHHGSRTNAFEAVARYVYPSLRRRLVEILRERGLTQIQIAELLHITQSAVSRYLRMNRGALIEVEKFQDIDEKLKGLADTIVREKPDEYYIHGELVKIAVEMLGKGYVCSFHSKVDPEIDPKLCRICIETFG | not soluble
2 | AHHHHHHGSVRDMEFGNLKPGVENSVCLSAEDLLNTVLSVINSTKARGAYVKIFGKDMEDNYLLEMLVDGSRILAIECSYVQAKKKVVGEEAIKKLAELVELPLIVSVYPLDDNQFRLILANNLEVYSQTPAVPLSSVFKKGATRTIESAIEEAKEEKEEEIQKIMKKTEEIVTEEKKKKEEKKRSSNRNTKRKQN | soluble
3 | AIAANQWERFVWLALDAPDTIVERAPLVIQVAWLEDTQLRLWEPAAREPLKRGDDAALRTYLRDAAECPWDPATDPSLVREFLLSRAVDCAFRDELAEHAGCVVDEELDTDFIAETMALSEELVRADDKKLPLETQDLDPASFDLLRAELALPAASAREVLRAGAHWAITRWPPREQWLPPCSRADAPATTALAATGGVPSEAQATPEPMCTETTVSDATCALPSGVYAQLQRIGRQLHNEELLYTQHLLNAALERAQTMTANPRTEARLGRVGH | soluble
4 | AIADNGDWGYMMTDPVTLNVGGHLYTTSLTTLTRYPDSMLGAMFGGDFPTARDPQGNYFIDRDGPLFRYVLNFLRTSELTLPLDFKEFDLLRKEADFYQIEPLIQCLNDPKPLYPMDTFEEVVELSSTRKLSKYSNPVAVIITQLTITTKVHSLLEGISNYFTKWNKHMMDTRDCQVSFTFGPCDYHQEVSLRVHLMEYITKQGFTIRNTRVHHMSERANENTVEHNWTFCRLARKTDD | soluble
5 | AIAEKLSEWKKFRIDSDKNDWIEQVDISGAKSLYEKEAQDKPLRVLVLYGSLRQRSFTRCCAYEAARLLDHLGADVRVFDPTELPVKGQVEETHHKVQELRELALWSEAQFWCSPEMHGNVTGCFKNQIDWIPLSLGSVRPTQGRTLAICQVNGGSQSFNAVNTLRVLGRWMRMFTIPNQSSIPKAWQEFDEYNRMKPSPLRDRLVDVVEELVKFSLMLRDHSSFHCVCQKL | soluble
6 | AIAELTGQRLREGDGPDGPADDGAGAQADLEHSLLVAAEKKDEGPYRMEHFRWGSPPKDKRYGGFMTSEKSQTPLVTLFKNAIIKNAYKKGE | soluble
7 | AIAGSRQDPVPLSFVTLQEQRCVLSWFLGWNVAQKQRFLEDLISKAVPGKVSSLLDQLNTLQVNDRPPNIFECQLRLWTQWFDSWSEEERNAFLNCLEEKDPTFVAFFYDQVAGTAGRD | soluble
8 | AIAMWQDQPMPSMDLVKNAFWNYVSQATLTAEETLQMIRNSELGQEINDRISKSTDAINKYTLAIQSQVTPLTQELLTKLSKEADQLKLSLEQEITSAQTQLKPYVEELKVDIEEQIERLKKDVAPYAEALNPEAMRLTLVQRAEELKAKLETSLMAMGPQSEELKQKLEQHFVEFQMSMSPLAESFQSQLAQRSQELQKNLAPYSEELSKLDPLAQDLKDQLTALWESFAKDKQS | soluble
9 | AIARALESTPLTGDVDWKSPLGSRSTWARLREQTRHCTFYRTYCFKASLKQLEEVTEEHVTYVGDCAALPPSPFLCVLLAYDCCSPSREEVAAHLDCSKNVYWRAIVATWIRWKESRAEQVYQLLDPLYRDYRPIKVRQKDNSYHNSYLDVFIDQLLRYRCALVSLEEPFVLDVIPFPHLPPRYELEARGVLPQREYAAPADDDDDDDAVSRPRLQQ | soluble
10 | AIASTMVYPREERLEKLTQDEIISSTKLVIQGLEALKSEHNSILQSLLETIQCLKKDEEASLVHEKSSLLRKSVEMIELGLGEAQVMMALSNHLNAVESEKQKLRAQVRRLCQENQWLRDELANTQHKVQKSEQSVAQLEEEKKHLEFMNQLKKYDDGATPEVSPHNDMHRDVSLSVRQLKRLRESK | soluble
11 | AICCQVDNCGADLSKVKDYHRRHKVCEIHSKATTALVGGIMQRFCQQCSRFHVLEEFD | soluble
12 | AKFREIANIALGKGAAIMADHLHEFIQLPVPHVGPLSYGELHMTLVDVIGRDSSVAVSQRFVGGGIHGEALVCLRGKDINQIGERLGYLLEFTPHNEIILNVSNLLVSSFLTSLGNQLDKQFSLRQPGIVDTITPYNEEQGESGELFTIEYTYMAEALDFECEVLFLIDKPSVEIIYEIMELI | not soluble
13 | AKPVTSETMAAKTVGLQIYSLGKELYADVPGGLKKIKQMGYTNLELAGYKEGKIGGVDMMEFKKMVDDAGLKITSSHVNPPVREYTKANRSQISEYWKKTADDHAKLGVKYLIQPGQPSTRSTEETAFVCEIFNEAGKIVKAAGIPFGYHNHEMEFAKVNPGSTEAKLGRRVKGDCIYELFLKNTDPSLVFFEMDVYWAVMGQQDPIEWLKKYPNRIKVLHIKDRAILGESGMMNFENIFRQAYANGIKDYFVELEGMPDGRSQFEGVKGCVDYLLKAPFVK | soluble
14 | AKVVCVLYDDPINGYPTSYARDDLPRIDKYPDGQTLPTPKAIDFTPGALLGSVSGELGLRKYLESQGHELVVTSSKDGPDSELEKHLHDAEVIISQPFWPAYLTAERIAKAPKLKLALTAGIGSDHVDLQAAIDNNITVAEVTYCNSNSVAEHVVMMVLGLVRNYIPSHDWARNGGWNIADCVARSYDVEGMHVGTVAAGRIGLRVLRLLAPFDMHLHYTDRHRLPEAVEKELNLTWHATREDMYGACDVVTLNCPLHPETEHMINDETLKLFKRGAYLVNTARGKLCDRDAIVRALESGRLAGYAGDVWFPQPAPNDHPWRTMPHNGMTPHISGTSLSAQTRYAAGTREILECYFEGRPIRDEYLIVQGGGLAGVGAHSYSKGNATGGSEEAAKYEKLDA | soluble
15 | ALLAVSMVACTSDEIALIEAMSKTSEISSYEGNSKIQLSFKGQGFSEKTQKVFDFLASYVDGFTFEANQKYSSNDEKTKATLAMDGNVDMQGLSVKYKYWTDMDFTTENPSLIQIVELPPAITQPMFTFANTGTKKYITIDYGSVLSAENNGGISLNPENLAKNSVELQEMLLDFVKTTAKDFDPGMVAVTKKGSAVTDKGEKVTEYELKLDDAAAKKLLHAFINDVILQEDTIEFGKKYMEAAINMYDFPEEEKQEALDEINKGLDEFASQLPAYRDSVTQVFESIKDVKFFGDKGLVAKYYINNDGFLVGGKSSIDIKIKMADFAALLGDNFDEKDKNGVLYLTIDAESSVYNINKEVSIELPEITEENSFDVLKGFMPILSGIGSAPGIGEEDYTYDIPALSDGINVVMNGKVVYFPDVKPENVNGRVLVPIRTISEEMGAEVTYNDATKQVLIAKDDTEILLTIGSQEAYVNGEKIMLDVPAMIIEGRTMVPLRFISESMNATVEWDGEAQIVYIFY | not soluble
16 | ALSGGFIKGFAHLGVMQALLEHDIKPDIISGVSAGALAGVFYADGNEPHQVIEYFSGHKFQDLTKLVIPKKGLFDLCEFIDFLHTNLKAKNLEELQIPLIITATDLDHGRMVHFHRGSIAERVAASCCMPVMFAPVNIDGTNYVDGGLMMNLPVSTLRRICDKVVAVNVSPIMAQDYKMNIVSIAMRSFHFMFRANTFPEREKCDLLIEPYNLYGYSNTELEKAEEIFEQGYKIAND | not soluble
17 | AMADIGSMGDPLTWSKALKKLEKVTVQGSQKLTTGNCNWALSLVDLFHDTNFVKEKDWQLRDVIPLLEDVTQTLSGQEREAFERTWWAISAVKMGLQINNVVDGKASFQLLRAKYEKKTANKKQSEPSEEY | soluble
18 | ANATVKMGSDSGALVFEPSTVTIKAGEEVKWVNNKLSPHNIVFAADGVDADTAAKLSHKGLAFAAGESFTSTFTEPGTYTYYCEPHRGAGMVGKVVVD | soluble
19 | ANGLFYSLRGNFSFARNKIIENDEPKPKYEYQDARGRRIDQTFGLVALGFFKDQDDIKNSPKQTFQSTVRPGDIKYKDINGDGVVDEYDKVAIGDPRTPEIMFGFGGTVAYKNFDVSLFFTGAAKTSFFLEGATVYPFLNGEGTWNVLREVYDNRWTSETAATAKYPIVLNANSYNNYQTSTMYMRNGSYLRLKSAEIGYTFKGRLIDKMFMDNIRLFCNGQNLLTLDYIKIVDPESNNGVGNYPMQRTINFGFQINFK | not soluble
20 | ANSMLKGKVALVTGASRGIGRAIAKRLANDGALVAIHYGNRKEEAEETVYEIQSNGGSAFSIGANLESLHGVEALYSSLDNELQNRTGSTKFDILINNAGIGPGAFIEETTEQFFDRMVSVNAKAPFFIIQQALSRLRDNSRIINISSAATRISLPDFIAYSMTKGAINTMTFTLAKQLGARGITVNAILPGFVKTDMNAELLSDPMMKQYATTISAFNRLGEVEDIADTAAFLASPDSRWVTGQLIDVSGGSCL | soluble
21 | APARPAHPLDPLSTAEIKAATNTVKSYFAGKKISFNTVTLREPARKAYIQWKEQGGPLPPRLAYYVILEAGKPGVKEGLVDLASLSVIETRALETVQPILTVEDLCSTEEVIRNDPAVIEQCVLSGIPANEMHKVYCDPWTIGYDERWGTGKRLQQALVYYRSDEDDSQYSHPLDFCPIVDTEEKKVIFIDIPNRRRKVSKHKHANFYPKHMIEKVGAMRPEAPPINVTQPEGVSFKMTGNVMEWSNFKFHIGFNYREGIVLSDVSYNDHGNVRPIFHRISLSEMIVPYGSPEFPHQRKHALDIGEYGAGYMTNPLSLGCDCKGVIHYLDAHFSDRAGDPITVKNAVCIHEEDDGLLFKHSDFRDNFATSLVTRATKLVVSQIFTAANYEYCLYWVFMQDGAIRLDIRLTGILNTYILGDDEEAGPWGTRVYPNVNAHNHQHLFSLRIDPRIDGDGNSAAACDAKSSPYPLGSPENMYGNAFYSEKTTFKTVKDSLTNYESATGRSWDIFNPNKVNPYSGKPPSYKLVSTQCPPLLAKEGSLVAKRAPWASHSVNVVPYKDNRLYPSGDHVPQWSGDGVRGMREWIGDGSENIDNTDILFFHTFGITHFPAPEDFPLMPAEPITLMLRPRHFFTENPGLDIQPSYAMTTSEAKRAV | soluble
22 | APYRYLAAGAADVISNLSAVKDWKLAHRLKGEEFSSSAAAMSEYSAQEVLSQINEIKKYEESSVWLVTKNILASGTAMAIAGNSRPGSGSEHLFAHALEAAGVENMLHGEMCAMGTVISMYLHDENWQQIKEAFDNLGISIRSRDYGIEDEIVINALRTAHAIRPERYTILGESDMSYDAAVKALELTGI | not soluble
23 | AQGQRRAPLSVVFTEPQVASVGLSLRQIEDLYADQDAANYVVGQVSFEGQGRSRVMGKNKGLLNVYADRTSGEFLGAEMFGPAAEHIGHLLAWARQQQMTVQAMLTMPFYHPVIEEGLRTALRDAQQKLAIEKHDMNEFIMTHDNAMKLVI | not soluble
24 | ARGSHMEEMIRSLQQRPEPTPEEWDLIHIATEAHRSTNAQGSHWKQRRKFLPDDIGQSPIVSMPDGDKVDLEAFSEFTKIITPAITRVVDFAKKLPMFSELPCEDQIILLKGCCMEIMSLRAAVRYDPESDTLTLSGEMAVKREQLKNGGLGVVSDAIFELGKSLSAFNLDDTEVALLQAVLLMSTDRSGLLCVDKIEKSQEAYLLAFEHYVNHRKHNIPHFWPKLLMKVTDLRMIGACHASRFLHCKVECPTELFPPLFLEVFEDQEV | soluble
25 | ARKIGIIGLGNVGAAVAHGLIAQGVADDYVFIDANEAKVKADQIDFQDAMANLEAHGNIVINDWAALADADVVISTLGNIKLQQDNPTGDRFAELKFTSSMVQSVGTNLKESGFHGVLVVISNPVDVITALFQHVTGFPAHKVIGTGTLLDTARMQRAVGEAFDLDPRSVSGYNLGEHGNSQFVAWSTVRVMGQPIVTLADAGDIDLAAIEEEARKGGFTVLNGKGYTSYGVATSAIRIAKAVMADAHAELVVSNRRDDMGMYLSYPAIIGRDGVLAETTLDLTTDEQEKLLQSRDYIQQRFDEIVDTL | soluble
